Test results taken from patent US20210292396A1 (INTERNATIONAL AIDS VACCINE INITIATIVE, published 2021).

Columns and labels:
Assay in all cases: cell-based or functional assay
[1] = target: HIV Env of isolate 191955_A11 (HIV)
HIV Env of isolate CNE17 = HIV Env of isolate CNE17 (HIV)
[2] = target: HIV Env of isolate C3347.c11 (HIV)
[3] = target: HIV Env of isolate Ce1176_A3 (HIV)
[4] = target: HIV Env of isolate BJOX015000.11.5 (HIV)
[5] = target: HIV Env of isolate HIV-001428-2.42 (HIV)
[6] = target: HIV Env of isolate T251-18 (HIV)
[7] = target: HIV Env of isolate X1254_c3 (HIV)
[8] = target: HIV Env of isolate Du156.12 (HIV)
[9] = target: HIV Env of isolate BF1266.431a (HIV)
[10] = target: HIV Env of isolate 3301.v1.c24 (HIV)
[11] = target: HIV Env of isolate 928-28 (HIV)
HIV Env of isolate CNE20 = HIV Env of isolate CNE20 (HIV)
[12] = target: HIV Env of isolate Ce2010_F5 (HIV)
[13] = target: HIV Env of isolate C4118.c09 (HIV)
[14] = target: HIV Env of isolate T257-31 (HIV)
[15] = target: HIV Env of isolate 7030102001E5(Rev-) (HIV)
[16] = target: HIV Env of isolate 1006_11_C3_1601 (HIV)
[17] = target: HIV Env of isolate 620345.c01 (HIV)
HIV Env of isolate CNE53 = HIV Env of isolate CNE53 (HIV)
[18] = target: HIV Env of isolate ZM53M.PB12 (HIV)
[19] = target: HIV Env of isolate P1981_C5_3 (HIV)
[20] = target: HIV Env of isolate REJO4541.67 (HIV)
[21] = target: HIV Env of isolate HIV-16055-2.3 (HIV)
[22] = target: HIV Env of isolate 89-F1_2_25 (HIV)
[23] = target: HIV Env of isolate BJOX010000.06.2 (HIV)
[24] = target: HIV Env of isolate Q461.e2 (HIV)
[25] = target: HIV Env of isolate MS208.A1 (HIV)
HIV Env of isolate PVO.4 = HIV Env of isolate PVO.4 (HIV)
[26] = target: HIV Env of isolate 0330.v4.c3 (HIV)
[27] = target: HIV Env of isolate BJOX009000.02.4 (HIV)
[28] = target: HIV Env of isolate X2131_C1_B5 (HIV)
[29] = target: HIV Env of isolate 6535.3 (HIV)
[30] = target: HIV Env of isolate 249M_B10 (HIV)
[31] = target: HIV Env of isolate C1080.c03 (HIV)
[32] = target: HIV Env of isolate ZM249M.PL1 (HIV)
[33] = target: HIV Env of isolate QH0692.42 (HIV)
[34] = target: HIV Env of isolate 6952.v1.c20 (HIV)
[35] = target: HIV Env of isolate TRO.11 (HIV)
HIV Env of isolate CNE52 = HIV Env of isolate CNE52 (HIV)
[36] = target: HIV Env of isolate 1394C9G1(Rev-) (HIV)
[37] = target: HIV Env of isolate CAAN5342.A2 (HIV)
[38] = target: HIV Env of isolate HIV-16845-2.22 (HIV)
[39] = target: HIV Env of isolate 6041.v3.c23 (HIV)
[40] = target: HIV Env of isolate 1012_11_TC21_3257 (HIV)

B1: ePGT121.15.H1.L1 (antibody, V domains shown)
VH: QMQLQESGPGLVKPGETLSLTCSVSGASISSSYWSWLRETPGKGLEWIGYTHHSGDTNYAPSLKSRVHLGLHPSKNQVSLSLTSVTAADTAVYYCARTLHGRRIYGVVAFNEWFTYFYWEVWGNGTQVTVSS
VL: SDISVAPGETVRISCGGESIGSRAVQWYQHRAGQAPKLIIYNNQDRPPGIPERFSGSPDIDFGTTATLTITNVEAGDEATYYCHIWDSRRPTNWVFGGGTTLTVL
[1]
  neutralization IC50: > 50000 ng/mL
HIV Env of isolate CNE17
  neutralization IC50: 3.7 ng/mL
[2]
  neutralization IC50: > 50000 ng/mL
[3]
  neutralization IC50: 0.4 ng/mL
[4]
  neutralization IC50: > 50000 ng/mL
[5]
  neutralization IC50: 0.1 ng/mL
[6]
  neutralization IC50: 5.5 ng/mL
[7]
  neutralization IC50: 1.4 ng/mL
[8]
  neutralization IC50: 0.1 ng/mL
[9]
  neutralization IC50: > 50000 ng/mL
[10]
  neutralization IC50: 2.9 ng/mL
[11]
  neutralization IC50: 17.8 ng/mL
HIV Env of isolate CNE20
  neutralization IC50: 0.3 ng/mL
[12]
  neutralization IC50: > 50000 ng/mL
[13]
  neutralization IC50: > 50000 ng/mL
[14]
  neutralization IC50: > 50000 ng/mL
[15]
  neutralization IC50: 0.2 ng/mL
[16]
  neutralization IC50: 0.3 ng/mL
[17]
  neutralization IC50: > 50000 ng/mL
HIV Env of isolate CNE53
  neutralization IC50: 1 ng/mL
[18]
  neutralization IC50: 0.6 ng/mL
[19]
  neutralization IC50: 1.4 ng/mL
[20]
  neutralization IC50: 3170 ng/mL
[21]
  neutralization IC50: 0.3 ng/mL
[22]
  neutralization IC50: > 50000 ng/mL
[23]
  neutralization IC50: > 50000 ng/mL
[24]
  neutralization IC50: > 50000 ng/mL
[25]
  neutralization IC50: > 50000 ng/mL
HIV Env of isolate PVO.4
  neutralization IC50: 0.4 ng/mL
[26]
  neutralization IC50: 1.5 ng/mL
[27]
  neutralization IC50: 4.6 ng/mL
[28]
  neutralization IC50: 0.4 ng/mL
[29]
  neutralization IC50: 0.3 ng/mL
[30]
  neutralization IC50: 2.2 ng/mL
[31]
  neutralization IC50: > 50000 ng/mL
[32]
  neutralization IC50: 2.4 ng/mL
[33]
  neutralization IC50: 0.8 ng/mL
[34]
  neutralization IC50: 0.9 ng/mL
[35]
  neutralization IC50: 0.1 ng/mL
HIV Env of isolate CNE52
  neutralization IC50: 20.3 ng/mL
[36]
  neutralization IC50: 0.4 ng/mL
[37]
  neutralization IC50: 0.2 ng/mL
[38]
  neutralization IC50: 7.2 ng/mL
[39]
  neutralization IC50: 12400 ng/mL
[40]
  neutralization IC50: 0.9 ng/mL

B2: PGT-121 (antibody, V domains shown)
VH: QMQLQESGPGLVKPSETLSLTCSVSGASISDSYWSWIRRSPGKGLEWIGYVHKSGDTNYSPSLKSRVNLSLDTSKNQVSLSLVAATAADSGKYYCARTLHGRRIYGIVAFNEWFTYFYMDVWGNGTQVTVSS
VL: SDISVAPGETARISCGEKSLGSRAVQWYQHRAGQAPSLIIYNNQDRPSGIPERFSGSPDSPFGTTATLTITSVEAGDEADYYCHIWDSRVPTKWVFGGGTTLTVLG
[1]
  neutralization IC50: > 50000 ng/mL
HIV Env of isolate CNE17
  neutralization IC50: 7600 ng/mL
[2]
  neutralization IC50: > 50000 ng/mL
[3]
  neutralization IC50: 13 ng/mL
[4]
  neutralization IC50: > 50000 ng/mL
[5]
  neutralization IC50: 14 ng/mL
[6]
  neutralization IC50: 29000 ng/mL
[7]
  neutralization IC50: 14 ng/mL
[8]
  neutralization IC50: 4 ng/mL
[9]
  neutralization IC50: > 50000 ng/mL
[10]
  neutralization IC50: 8 ng/mL
[11]
  neutralization IC50: 44200 ng/mL
HIV Env of isolate CNE20
  neutralization IC50: 1 ng/mL
[12]
  neutralization IC50: > 50000 ng/mL
[13]
  neutralization IC50: > 50000 ng/mL
[14]
  neutralization IC50: > 50000 ng/mL
[15]
  neutralization IC50: 9 ng/mL
[16]
  neutralization IC50: 2 ng/mL
[17]
  neutralization IC50: > 50000 ng/mL
HIV Env of isolate CNE53
  neutralization IC50: 7 ng/mL
[18]
  neutralization IC50: 1 ng/mL
[19]
  neutralization IC50: 1 ng/mL
[20]
  neutralization IC50: 4770 ng/mL
[21]
  neutralization IC50: 153 ng/mL
[22]
  neutralization IC50: > 50000 ng/mL
[23]
  neutralization IC50: > 50000 ng/mL
[24]
  neutralization IC50: > 50000 ng/mL
[25]
  neutralization IC50: > 50000 ng/mL
HIV Env of isolate PVO.4
  neutralization IC50: 98 ng/mL
[26]
  neutralization IC50: 50 ng/mL
[27]
  neutralization IC50: 2860 ng/mL
[28]
  neutralization IC50: 4 ng/mL
[29]
  neutralization IC50: 2 ng/mL
[30]
  neutralization IC50: > 50000 ng/mL
[31]
  neutralization IC50: > 50000 ng/mL
[32]
  neutralization IC50: > 50000 ng/mL
[33]
  neutralization IC50: 302 ng/mL
[34]
  neutralization IC50: 56 ng/mL
[35]
  neutralization IC50: 5 ng/mL
HIV Env of isolate CNE52
  neutralization IC50: 2050 ng/mL
[36]
  neutralization IC50: 264 ng/mL
[37]
  neutralization IC50: 7 ng/mL
[38]
  neutralization IC50: 3970 ng/mL
[39]
  neutralization IC50: > 50000 ng/mL
[40]
  neutralization IC50: 3 ng/mL
